Source: patent US20200208174

Experiments:
[1] = target: CD38 TALEN Right (artificial) (UniProt Q56830); assay: cell_activity; settings: paired with CD38 TALEN Left; simultaneous electroporation with TRAC and CD52 TALEN
[2] = target: CD38 TALEN Left (artificial) (UniProt Q56830); assay: cell_activity; settings: paired with CD38 TALEN Right; simultaneous electroporation with TRAC and CD52 TALEN

Substance | activity (% CD38-negative cells) [1] | activity (% CD38-negative cells) [2]
CD38 right half-site | 66.1 | –
CD38 left half-site | – | 66.1
